The results in this text go back to IntAct's records for PubMed 19893486.

Sequences and labels used below:
B1: Rho guanine nucleotide exchange factor TIAM2 (Mus musculus), Q6ZPF3 (parent)
chain: MGNSESQYTFQGSKNHSNTVTGAKQKPCSLKIRSVHAKDEKSLHGWTHGSSGAGYKSRSLARSCLSHFKNHQPYATRLSGPTCKVSKGTTYSKHRANTPGNDFQGNSGAFLPENGFHYVDRESEESHITSNGHLLTCYGRKESLASTPPGEDHRSPRVLIKTLGKLDGCLRVEFHNGGNPHKGTSEDPSGPVRLLRYSPTLASETCPVRETRRHSAAGSPSSQRPSPTDSRLRSSKGSSLSSESSWYDSPWGNAGEVSEVEGSFLAPSTPDPSLPSSFPPSDTKKPFNQSSSLSSLRELYKDPNLGCRSPSGTCLSSNEYISSQVSLNNRVSFASDMDVPSRVDHRDPLHYSSFTLPCRKSKALTEDAAKKDTLKARMRRFSDWTGSLSRKKRKLQEPRSMEGSEYFDSHSDGLNAEGQVPAQTSSLLWSGGSAQTLPHRSESTHAISVDPLRQNIYENFMRELEMSRSNTEHVETSTETMESSSESVSSLEQLDLLFEKEQGVVRKAGWLFFKPLVTLQKERKLELVARRKWKQYWVTLKGCTLLFYETYGKNSTEQNSAPRCALFAEDSIVQSVPEHPKKEHVFCLSNSCGDVYLFQATSQTDLENWVTAIHSACASLFAKKHGKEDTVRLLKSQTRSLLQKIDMDSKMKKMAELQLSVVSDPKNRKAIENQIRQWEQNLEKFHMDLFRMRCYLASLQGGELPNPKSLLAATSRPSKLALGRLGVLSVSSFHALVCSRDDSTLRKRTLSLTQRGKSKKGIFSSLKGLDTLARKGREKRASITQMFDSSHSHGFLGTQLPQKSTNSNKAHDLHLYGSAVDSALRDSMWEVQTYVHFQDNEGVTVTIKPEHRVEDVLALVCKMRQLEPTHYGLQLRKVVDKSVEWCVPALYEYMQEQVYDEIEVFPLSVYDVQLTKTGDMTDFGFAVTVQVDEHQHLNRIFISDVLPDSLAYGGGLRKGNEITSLNGEPVSDLDIQQMEALFSEKSVGLTLVARPVTTRRTLCASWSDSDLFSRDQKSLPPSPNQSQLLEEFLDNFRKTATSDFSNVPEITTGLKRSQTEGTLDQVPHREKMEQTFLSADQIAELCRDLNNTHTNSMEAPTESHDPPPRPLARHLSDADRLRKVIQELVDTEKSYVKDLSCLFELYLEPLQNETFLTQDEMESLFGSLPEMLEFQKVFLETLEDAISASSDFSVLETPSQFRKLLFSLGGSFLYYADHFKLYSGFCANHIKVQRVLERAKTDKAFKAFLDARNPTKQHSSTLESYLIKPVQRVLKYPLLLKELVSLTDHESEEHYHLTEALKAMEKVASHINEMQKIYEDYGMVFDQLVAEQSGTEKEVTELSMGELLMHSTVSWLNPFLSLGKARKDIELTVFVFKRAVILVYKENCKLKKKLPSNSRPAHNSADLDPFKFRWLIPISALQVRLGNTAGTENNSTWELIHTKSEIEGRPETIFQLCCSDSENKTSIVKVIRSILRENFRRHIKCELPLEKTCKDRLVPLKNRVPVSAKLASSRSLKGLRTSSSSEWPSEPSKGNSLDSDECSLSSGTQSSGCPVAESRRDSKSTELEKDAQEGLAEFPDGLIKESDILSDEDEDFHHPLKQGSPTKDIEIQFQRLKISEESDVHPVGQQPLTESGEQPKLVRGHFCPIKRKANSTKRGRGTLLKAQTRHQSLDSHPETASIDLNLVLEREFSVQSLTSVVNEEGFYETQSHGKS
partner: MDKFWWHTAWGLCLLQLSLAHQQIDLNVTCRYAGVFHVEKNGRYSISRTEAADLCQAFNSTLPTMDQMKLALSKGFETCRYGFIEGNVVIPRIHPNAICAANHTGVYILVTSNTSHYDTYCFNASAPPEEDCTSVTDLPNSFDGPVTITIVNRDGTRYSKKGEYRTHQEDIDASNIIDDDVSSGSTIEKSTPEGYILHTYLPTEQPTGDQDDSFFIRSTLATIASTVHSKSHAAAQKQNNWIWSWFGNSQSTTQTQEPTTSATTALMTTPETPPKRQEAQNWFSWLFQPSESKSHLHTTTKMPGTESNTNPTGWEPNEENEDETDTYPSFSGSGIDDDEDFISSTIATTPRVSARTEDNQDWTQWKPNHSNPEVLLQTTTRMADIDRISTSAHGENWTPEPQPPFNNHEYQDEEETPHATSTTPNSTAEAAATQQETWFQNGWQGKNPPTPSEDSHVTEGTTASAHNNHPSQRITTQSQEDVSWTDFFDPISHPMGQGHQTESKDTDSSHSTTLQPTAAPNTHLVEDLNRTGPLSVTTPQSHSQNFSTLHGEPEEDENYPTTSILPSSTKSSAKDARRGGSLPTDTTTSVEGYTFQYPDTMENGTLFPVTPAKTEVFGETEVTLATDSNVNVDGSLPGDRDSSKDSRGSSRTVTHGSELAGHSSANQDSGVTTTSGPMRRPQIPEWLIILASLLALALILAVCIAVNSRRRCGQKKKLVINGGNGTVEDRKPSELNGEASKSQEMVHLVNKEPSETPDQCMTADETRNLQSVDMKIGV
B2: CD44 antigen (Mus musculus), P15379 (parent)
chain: B1 partner
B3: Rho guanine nucleotide exchange factor TIAM1 (Mus musculus), Q60610 (parent)
chain: MGNAESQNVDHEFYGEKHASLGRKHTSRSLRLSHKTRRTRHASSGKAIHRNSEVSTRSSSTPSIPQSLAENGLEPFSQEGALDDFGDPIWVDRVDMGLRPVSYTDSSVTPSVDGSIVLTAASVQSMPDSEESRLYGDDATYLAEGGRRQCPYTSNGPTFMETASFKKKRSKSADIWREDSLEFSLSDLSQEHLTSNEEILGSAEEKDCEEARGMETEASPRQLSTCQRANSLGDLYAQKNSGVKANGGPRNRFSSYCRNLVSDIPDLAKHKMPPAAAEETPPYSNYNTLPCRKSHCLSEGATNPQISLSKSMQGRRAKTTQDVNTGEGSEFADSGIEGATTDTDLLSRRSNATNSSYSPPTGRAFVGSDSGSSSTGDRARQGVYENFRRELEMSTTNSESLEEAGSAHSDEQSSGTLSSPGQSDILLTAAQGTVRKAGALAVKNFLVHKKNKKVESATRRKWKHYWVSLKGCTLFFYETDGRSGIDHNSVPKHAVWVENSIVQAVPEHPKKDFVFCLSNSLGDAFLFQTTSQTELENWITAIHSACAAAVARHHHKEDTLRLLKSEIKKLEQKIDMDEKMKKMGEMQLSSVTDSKKKKTILDQIFVWEQNLEQFQMDLFRFRCYLASLQGGELPNPKRLLAFASRPTKVAMGRLGIFSVSSFHALVAARTGEIGVRRRTQAMSRSASKRRSRFSSLWGLDTTSKKKQGRPTINQVFGEGTDAVKRSLEGIFDDTVPDGKREKEVVLPSVHQHNPDCDIWVHEYFTPSWFCLPNNQPALTVVRPGDTARDTLELICKTHQLDHSAHYLRLKFLMENRVQFYIPQPEEDIYELLYKEIEICPKVTQNIHIEKSDAAADNYGFLLSSVDEDGIRRLYVNSVKETGLASKKGLKAGDEILEINNRAAGTLNSSMLKDFLSQPSLGLLVRTYPEPEGGVELLENPPHRVDGPVDLGESPLAFLTSNPGHSLSSEQGSSAETAPEEGEGPDLESSDETDHSSKSTEQVAAFCRSLHEMSPSDSSPSPQDATSPQLATTRQLSDADKLRKVICELLETERTYVKDLNCLMERYLKPLQKETFLTQDELDVLFGNLTEMVEFQVEFLKTLEDGVRLVPDLEKLEKVDQFKKVLFSLGGSFLYYADRFKLYSAFCASHTKVPKVLVKAKTDTAFKAFLDAQNPRQQHSSTLESYLIKPIQRVLKYPLLLRELFALTDAESEEHYHLDVAIKTMNKVASHINEMQKIHEEFGAVFDQLIAEQTGEKKEVADLSMGDLLLHTSVIWLNPPASLGKWKKEPELAAFVFKTAVVLVYKDGSKQKKKLVGSHRLSIYEEWDPFRFRHMIPTEALQVRALPSADAEANAVCEIVHVKSESEGRPERVFHLCCSSPESRKDFLKSVHSILRDKHRRQLLKTESLPSAQQYVPFGGKRLCALKGARPAMSRAVSAPSKSLGRRRRRLARNRFTIDSDAISASSPEKEPQQPAGGGDTDRWVEEQFDLAQYEEQDDIKETDILSDDDEFCESLKGASVDRDLQEQLQAASISQRARGRRTLDSHASRMTQLKKQAALSGINGGLESASEEVIWVRREDFAPSRKLNTEI
B4: Rho guanine nucleotide exchange factor TIAM2 (Mus musculus), Q6ZPF3 (parent)
chain: B1 chain

Variants of B1 are the subject of the first experiment. As to conditions: with cd44_mouse Cd44, P15379.
For the variant R632A, the “effect of a mutation on the interaction” value was “decreasing interaction”.

The variants in the next experiment derive from B1. As to conditions: with cd44_mouse Cd44, P15379. The source holds these as a separate data set.
Consider K627A, for which the “effect of a mutation on the interaction” value was “decreasing interaction”.

The variants in a further experiment derive from B1. The settings on record: with cd44_mouse Cd44, P15379. The source holds these as a separate data set.
As to R693A, the “effect of a mutation on the interaction” value is “decreasing interaction”.

The next experiment covers variants of B1. As to conditions: with cd44_mouse Cd44, P15379. The source holds these as a separate data set.
Consider R716A, for which the “effect of a mutation on the interaction” value is listed as “decreasing interaction”.

The variants in another experiment derive from B1. The settings on record: with cd44_mouse Cd44, P15379. The source holds these as a separate data set.
In the case of K624A, the “effect of a mutation on the interaction” value is given as “decreasing interaction”.

In a further experiment the parent is B2. The settings on record: with tiam1_mouse Tiam1, Q60610.
Regarding E755K, the “effect of a mutation on the interaction” value is listed as “disrupting interaction”.

In a further experiment the parent is B2. The settings on record: with tiam1_mouse Tiam1, Q60610. The source holds these as a separate data set.
As for S754A, the “effect of a mutation on the interaction” value is “decreasing interaction”.

In another experiment the parent is B2. The settings on record: with tiam1_mouse Tiam1, Q60610. The source holds these as a separate data set.
As for E752K, the “effect of a mutation on the interaction” value is given as “disrupting interaction”.

The variants in a further experiment derive from B2. The settings on record: with tiam1_mouse Tiam1, Q60610. This is another data set of the same source.
With T762A, the “effect of a mutation on the interaction” value was “decreasing interaction”.

The variants in another experiment derive from B2. As to conditions: with tiam1_mouse Tiam1, Q60610. This is another data set of the same source.
Regarding P753A, the “effect of a mutation on the interaction” value is given as “decreasing interaction”.

The variants in a further experiment derive from B2. The settings on record: with tiam1_mouse Tiam1, Q60610. The source holds these as a separate data set.
In the case of C760S, the “effect of a mutation on the interaction” value is “disrupting interaction”.

In another experiment the parent is B3. As to conditions: with pard3_human PARD3, Q8TEW0.
Target sequence in this assay (Q8TEW0 whole entry): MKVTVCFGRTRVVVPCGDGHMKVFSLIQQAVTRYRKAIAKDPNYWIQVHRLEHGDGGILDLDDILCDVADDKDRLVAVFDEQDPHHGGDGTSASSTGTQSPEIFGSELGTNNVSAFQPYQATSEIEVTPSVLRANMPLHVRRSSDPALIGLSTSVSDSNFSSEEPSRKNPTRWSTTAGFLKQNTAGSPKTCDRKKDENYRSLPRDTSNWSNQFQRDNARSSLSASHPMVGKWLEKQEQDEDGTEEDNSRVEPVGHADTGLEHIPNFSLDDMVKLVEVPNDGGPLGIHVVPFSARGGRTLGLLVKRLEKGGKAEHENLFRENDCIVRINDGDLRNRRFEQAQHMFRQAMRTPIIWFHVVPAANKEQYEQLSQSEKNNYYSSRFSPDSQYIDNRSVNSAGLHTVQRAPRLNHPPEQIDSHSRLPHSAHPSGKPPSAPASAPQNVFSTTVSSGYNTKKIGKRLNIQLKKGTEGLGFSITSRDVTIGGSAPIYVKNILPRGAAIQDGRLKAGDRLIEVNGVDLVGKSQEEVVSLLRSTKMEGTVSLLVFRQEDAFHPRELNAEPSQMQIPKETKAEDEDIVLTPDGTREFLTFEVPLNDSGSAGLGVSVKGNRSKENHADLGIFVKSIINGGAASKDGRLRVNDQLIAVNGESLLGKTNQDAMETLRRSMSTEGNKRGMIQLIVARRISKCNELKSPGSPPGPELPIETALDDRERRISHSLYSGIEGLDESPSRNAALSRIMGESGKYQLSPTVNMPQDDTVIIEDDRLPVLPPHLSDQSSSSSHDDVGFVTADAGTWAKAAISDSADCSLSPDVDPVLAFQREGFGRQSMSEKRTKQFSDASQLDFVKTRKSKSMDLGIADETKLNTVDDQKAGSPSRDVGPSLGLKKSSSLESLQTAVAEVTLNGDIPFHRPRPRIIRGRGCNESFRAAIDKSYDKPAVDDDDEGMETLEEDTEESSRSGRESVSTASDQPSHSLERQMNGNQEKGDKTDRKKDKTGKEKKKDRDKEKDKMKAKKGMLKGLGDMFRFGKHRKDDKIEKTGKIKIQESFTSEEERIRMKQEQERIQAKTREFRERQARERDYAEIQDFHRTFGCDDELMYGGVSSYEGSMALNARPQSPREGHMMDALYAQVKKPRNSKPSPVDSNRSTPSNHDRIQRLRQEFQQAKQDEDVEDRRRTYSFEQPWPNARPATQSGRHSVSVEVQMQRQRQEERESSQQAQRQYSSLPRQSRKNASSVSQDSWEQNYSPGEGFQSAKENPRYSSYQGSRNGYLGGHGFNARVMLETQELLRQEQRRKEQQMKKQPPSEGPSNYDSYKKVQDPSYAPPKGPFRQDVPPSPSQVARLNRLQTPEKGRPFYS
For the variant R645A, the “effect of a mutation on the interaction” value is “decreasing interaction”.

For R622A, the “effect of a mutation on the interaction” value was “decreasing interaction”.

Variants of B4 are the subject of the next experiment. The settings on record: with pard3_human PARD3, Q8TEW0.
Target sequence in this assay (Q8TEW0 whole entry): as above
Take R693A: the “effect of a mutation on the interaction” value is listed as “decreasing interaction”.

Take R716A: the “effect of a mutation on the interaction” value is on record as “decreasing interaction”.

In another experiment the parent is B4. As to conditions: with PARD3, Q8TEW0-2.
Sequence of PARD3, Q8TEW0-2 (Q8TEW0 other isoform, or with tags, fused parts or gaps): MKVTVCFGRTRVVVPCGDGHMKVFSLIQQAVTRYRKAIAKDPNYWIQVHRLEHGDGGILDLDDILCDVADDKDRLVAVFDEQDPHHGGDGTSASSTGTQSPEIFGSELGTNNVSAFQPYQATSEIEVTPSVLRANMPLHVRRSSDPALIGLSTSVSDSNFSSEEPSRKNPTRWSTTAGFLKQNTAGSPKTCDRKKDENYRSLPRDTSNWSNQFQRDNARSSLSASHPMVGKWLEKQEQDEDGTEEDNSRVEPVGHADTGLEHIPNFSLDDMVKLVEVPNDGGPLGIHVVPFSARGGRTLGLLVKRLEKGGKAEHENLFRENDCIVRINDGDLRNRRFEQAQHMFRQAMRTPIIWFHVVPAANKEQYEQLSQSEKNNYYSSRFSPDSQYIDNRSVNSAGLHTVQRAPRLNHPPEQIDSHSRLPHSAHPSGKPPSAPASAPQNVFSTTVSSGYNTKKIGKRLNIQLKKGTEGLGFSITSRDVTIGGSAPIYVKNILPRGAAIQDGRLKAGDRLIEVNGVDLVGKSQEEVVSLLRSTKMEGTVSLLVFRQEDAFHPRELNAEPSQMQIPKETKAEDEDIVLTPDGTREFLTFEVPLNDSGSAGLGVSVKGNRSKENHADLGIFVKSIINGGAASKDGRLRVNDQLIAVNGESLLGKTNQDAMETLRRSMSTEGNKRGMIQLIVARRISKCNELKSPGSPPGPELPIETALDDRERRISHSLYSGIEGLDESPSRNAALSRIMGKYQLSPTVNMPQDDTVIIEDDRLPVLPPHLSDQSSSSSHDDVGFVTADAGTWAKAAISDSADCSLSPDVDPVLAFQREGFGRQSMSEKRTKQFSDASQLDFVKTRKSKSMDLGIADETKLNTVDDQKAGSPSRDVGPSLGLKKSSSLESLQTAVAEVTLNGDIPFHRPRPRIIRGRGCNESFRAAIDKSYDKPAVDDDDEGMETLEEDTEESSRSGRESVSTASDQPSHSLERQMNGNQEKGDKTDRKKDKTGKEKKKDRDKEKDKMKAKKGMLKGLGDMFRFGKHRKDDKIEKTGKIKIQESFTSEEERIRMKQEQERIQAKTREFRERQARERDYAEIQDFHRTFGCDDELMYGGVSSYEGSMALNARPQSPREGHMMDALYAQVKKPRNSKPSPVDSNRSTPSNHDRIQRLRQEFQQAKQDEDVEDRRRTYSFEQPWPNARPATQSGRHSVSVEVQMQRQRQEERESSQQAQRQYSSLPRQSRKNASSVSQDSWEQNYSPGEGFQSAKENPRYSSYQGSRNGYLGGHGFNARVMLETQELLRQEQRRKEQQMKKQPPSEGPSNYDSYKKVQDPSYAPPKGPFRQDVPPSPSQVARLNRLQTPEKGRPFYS
For R693A, the “effect of a mutation on the interaction” value is “decreasing interaction”.

The variants in a further experiment derive from B4. The settings on record: with PARD3, Q8TEW0-2. This is another data set of the same source.
As for R716A, the “effect of a mutation on the interaction” value was “decreasing interaction”.

Variants of B4 are the subject of a further experiment. As to conditions: with PARD3, Q8TEW0-2. This is another data set of the same source.
With K627A, the “effect of a mutation on the interaction” value is listed as “decreasing interaction”.

Variants of B4 are the subject of a further experiment. The settings on record: with PARD3, Q8TEW0-2. The source holds these as a separate data set.
For the variant K624A, the “effect of a mutation on the interaction” value is “decreasing interaction”.

The variants in another experiment derive from B4. As to conditions: with PARD3, Q8TEW0-2. This is another data set of the same source.
For the variant R632A, the “effect of a mutation on the interaction” value is given as “decreasing interaction”.
